Numbered stars: 1 amine (or outer) side, 2 acyl side, 3 side chain; on linkers, the order of the positions; unused ones are H or OH. Square brackets hold non-standard residues; d marks the D form. Side chains are listed from the residue outwards. Ends that are not written are not given here. * marks the point of attachment. Malonyl(2,2-Me2,histaminyl) = CC(C)(C(=O)NCCc1cnc[nH]1)C(=O)*; C20 diacid = O=C(O)CCCCCCCCCCCCCCCCCCC(=O)*; C18 diacid = O=C(O)CCCCCCCCCCCCCCCCC(=O)*; C16 diacid = O=C(O)CCCCCCCCCCCCCCC(=O)*; γGlu = O=C(O)[C@H](CCC(=O)[*:2])N[*:1]; Desaminohistidyl = O=C(CCc1c[nH]cn1)*; Palmitoyl = CCCCCCCCCCCCCCCC(=O)*; Trx = NC[C@H]1CC[C@H](C(=O)O)CC1; AEEA = NCCOCCOCC(=O)O; Aib = CC(C)(N)C(=O)O; Inp = O=C(O)C1CCNCC1
What was measured:
human GLP-1 receptor [1] = target: T1, human GLP-1 receptor (human, UniProt P43220 24-463); assay: SPA, displacement of 125I-GLP-1(7-36)NH2 from hGLP-1R membranes, 0.005% HSA
T1 construct: whole, on cells; Used as purified plasma membranes of the transfected hamster cell line, not as intact cells; also called hGLP-1
Method: (§1) 25 ul (micro liter) of test compounds were added to Optiplate. HSA ("high albumin" experiment containing 2% HSA), or buffer ("low albumin" experiment containing 0.005% HSA), was added (50 ul). 5-10 ug protein/sample was added (50 ul) corresponding to 0.1-0.2 mg protein/ml (to be preferably optimised for each membrane preparation). SPA-particles (Wheatgerm agglutinin SPA beads, Perkin Elmer, #RPNQ0001) were added in an amount of 0.5 mg/well (50 ul). […] The plates were sealed with PlateSealer and incubated for 120 minutes at 30° C. while shaking. The plates were centrifuged (1500 rpm, 10 min) and counted in Topcounter.

human GLP-1 receptor [2] = target: T1, human GLP-1 receptor; assay: SPA, displacement of 125I-GLP-1(7-36)NH2 from hGLP-1R membranes, 2.0% HSA
Method: as §1

Binder	IC50 (human GLP-1 receptor [1]) [nM]	IC50 (human GLP-1 receptor [2]) [nM]
HAEGTFTSDVSSYLEGQAAK([γGlu-Palmitoyl])EFIAHLVQGRG [N^ε26-[(4S)-4-carboxy-4-(hexadecanoylamino)butanoyl]-[His^31,Gln^34]-GLP-1-(7-37)-peptide]	< 600	≤ 1000
[Desaminohistidyl]AEGTFTSDVSSYLEEQAAREFIAHLVQGRK (unacylated analogue; also called Chem. 40) [[Imp^7,Glu^22,Arg^26,His^31,Gln^34,Lys^37]-GLP-1-(7-37)-peptide]	< 600	≤ 1000
{Malonyl(2,2-Me2,histaminyl)}-EGTFTSDVSSYLEGQAAK([AEEA-AEEA-γGlu-C18 diacid])EFIAHLVQGRG (also called Chem. 37)	< 600	≤ 1000
HXEGTFTSDVSSYLEGQAAKEFIAHLVQGRG (Aib8 (GLP-1(7-37) numbering), unacylated analogue; also called (8Aib, 31H, 34Q)) [[Aib^8,His^31,Gln^34]GLP-1(7-37)-peptide]	< 600	≤ 1000
HXEGTFTSDVSSYLEGQAAKEFIAHLVQGRG (Aib8; Lys26 N-epsilon-acylated (side chain as in name); GLP-1(7-37) numbering) [N^ε26-[2-(2-{2-[2-(2-{2-[(S)-4-Carboxy-4-(15-carboxypentadecanoylamino)butyrylamino]ethoxy}ethoxy)acetylamino]ethoxy}ethoxy)acetyl][Aib^8,His^31,Gln^34]GLP-1(7- …, listing 1 of 5 here]	< 600	≤ 1000
HXEGTFTSDVSSYLEGQAAKEFIAHLVQGRG (Aib8; Lys26 N-epsilon-acylated (side chain as in name); GLP-1(7-37) numbering) [N^ε26[2-(2-{2-[(S)-4-Carboxy-4-(2-{2-[2-(17-carboxy-heptadecanoylamino)ethoxy]ethoxy}acetylamino)butyryl amino]ethoxy}ethoxy)acetyl] …, listing 2 of 5 here]	< 600	≤ 1000
HXEGTFTSDVSSYLEGQAAKEFIAHLVQGRG (Aib8; Lys26 N-epsilon-acylated (side chain as in name); GLP-1(7-37) numbering) [N^ε26 [2-(2-(2-{2-[(S)-4-Carboxy-4-(15-carboxypentadecanoylamino)butyrylamino]ethoxy}ethoxy)acetyl][Aib^8,His^31,Gln^34]GLP-1(7-37)-peptide, listing 3 of 5 here]	< 600	≤ 1000
HXEGTFTSDVSSYLEGQAAKEFIAHLVQGRG (Aib8; Lys26 N-epsilon-acylated (side chain as in name); GLP-1(7-37) numbering) [N^ε26 [(S)-4-Carboxy-4-(2-{2-[2-(2-{2-[2-(17-carboxy-heptadecanoylamino)ethoxy]ethoxy}acetylamino)ethoxy]-ethoxy}acetylamino)butyryl] …, listing 4 of 5 here]	< 600	≤ 1000
HXEGTFTSDVSSYLEGQAAKEFIAHLVQGRG (Aib8; Lys26 N-epsilon-acylated (side chain as in name); GLP-1(7-37) numbering) [N^ε26 [(S)-4-Carboxy-4-(15-carboxypentadecanoylamino)butyryl][Aib^8,His^31,Gln^34]GLP-1(7-37)-peptide, listing 5 of 5 here]	< 600	≤ 1000
H[Aib]EGTK([AEEA-AEEA-γGlu-C18 diacid])TSDVSSYLEEQAAREFIAHLVQGRG	< 600	≤ 1000
H[Aib]EGTK([AEEA-AEEA-C18 diacid])TSDVSSYLEEQAAREFIAHLVQGRG	< 600	≤ 1000
H[Aib]EGTFTSDVSSYLEGQAIRK([AEEA-AEEA-γGlu-C18 diacid])FIAHLVQGRG	< 600	≤ 1000
H[Aib]EGTFTSDVSK([AEEA-AEEA-γGlu-C18 diacid])YLEEQAAREFIAHLVQGRG	< 600	≤ 1000
H[Aib]EGTFTSDK([AEEA-AEEA-γGlu-C18 diacid])SSYLEEQAAREFIAHLVQGRG	< 600	≤ 1000
H[Aib]EGTK([AEEA-AEEA-γGlu-C18 diacid])TSDVSSYLEGQAAKEFIAHLVQGRG	< 600	≤ 1000
H[Aib]EGTFTSDVSSYLEGQAARK([AEEA-AEEA-γGlu-C18 diacid])FIAHLVQGRG	< 600	≤ 1000

Binder	IC50 (human GLP-1 receptor [1]) [nM]	IC50 (human GLP-1 receptor [2]) [nM]
H[Aib]EGTFTSDVSSYLEEQAARK([AEEA-AEEA-γGlu-C18 diacid])FIEHLVQGRP	< 600	≤ 1000
H[Aib]EGTFTSDVSSYLEEQAARK([AEEA-AEEA-γGlu-C18 diacid])FIAHLVQGRG	< 600	≤ 1000
H[Aib]EGTFTSDVSSYLEEQK([AEEA-AEEA-γGlu-C18 diacid])AREFIAHLVQGRG	< 600	≤ 1000
H[Aib]EGTFTSDVSK([AEEA-AEEA-γGlu-Inp-C20 diacid])YLEEQAAHEFIAHLVQGRG	< 600	≤ 1000
HXEGTFTSDVSSYLEGQAAKEFIEHLVQGKGE (HELM PEPTIDE1{H.[Aib].E.G.T.F.T.S.D.V.S.S.Y.L.E.G.Q.A.A.K.E.F.I.E.H.L.V.Q.G.K.G.E.[am]}|PEPTIDE2{[O=C(O)CCCCCCCCCCCCCCCCC(=O)[*:2]].[O=C(COCCOCCN[*:1])[*:2]]}$PEPTIDE1,PEPTIDE2,30:R3-2:R2$$$V2.0; N-terminus assumed; SMILES CC[C@H](C)[C@H](NC(=O)[C@H](Cc1ccccc1)NC(=O)[C@H](CCC(=O)O)NC(=O)[C@H](CCCCN)NC(=O)[C@H](C)NC(=O)[C@H](C)NC(=O)[C@H](CCC(N)=O)NC(=O)CNC(=O)[C@H](CCC(=O)O)NC(=O)[C@H](CC(C)C)NC(=O)[C@H](Cc1ccc(O)cc1)NC(=O)[C@H](CO)NC(=O)[C@H](CO)NC(=O)[C@@H](NC(=O)[C@H](CC(=O)O)NC(=O)[C@H](CO)NC(=O)[C@@H](NC(=O)[C@H](Cc1ccccc1)NC(=O)[C@@H](NC(=O)CNC(=O)[C@H](CCC(=O)O)NC(=O)C(C)(C)NC(=O)[C@@H](N)Cc1c[nH]cn1)[C@@H](C)O)[C@@H](C)O)C(C)C)C(=O)N[C@@H](CCC(=O)O)C(=O)N[C@@H](Cc1c[nH]cn1)C(=O)N[C@@H](CC(C)C)C(=O)N[C@H](C(=O)N[C@@H](CCC(N)=O)C(=O)NCC(=O)N[C@@H](CCCCNC(=O)COCCOCCNC(=O)CCCCCCCCCCCCCCCCC(=O)O)C(=O)NCC(=O)N[C@@H](CCC(=O)O)C(N)=O)C(C)C)	< 600	≤ 1000
[Desaminohistidyl]AEGTFTSDVSSYLEEQAAREFIAHLVQGRK([AEEA-AEEA-γ‑D‑Glu-Trx-C20 diacid])	< 600	≤ 1000
HAEGTFTSDVSSYLEGQAAK([γGlu-C16 diacid])EFIAHLVQGRG [N^ε26-[(4S)-4-carboxy-4-(15-carboxypentadecanoylamino)butanoyl]-[His^31,Gln^34]-GLP-1-(7-37)-peptide]	< 600	≤ 1000
H[dA]EGTFTSDVSSYLEGQAAK([AEEA-AEEA-γGlu-C18 diacid])EFIAHLVQGRG	< 600	≤ 1000
AEGTFTSDVSSYLEGQAAK([AEEA-AEEA-γGlu-C18 diacid])EFIAHLVQGRG (not fully specified (N-terminus); printed as N^8 3H-Imidazol-4-yl-acetyl, N^ε28-[2-(2-{2-[2-(2-{2-[(S)-4-Carboxy-4-(17-carboxyheptadecanoylamino)butyrylamino]ethoxy}ethoxy)acetylamino] ethoxy}ethoxy)acetyl][His^31,Gln^34]GLP-1(8-37)-peptide)	< 600	≤ 1000
HAEGTFTSDVSSYLEGQAAK([AEEA-AEEA-γGlu-C18 diacid])EFIAHLVQGRG	< 600	≤ 1000
HGEGTFTSDVSSYLEGQAAK([AEEA-AEEA-γGlu-C18 diacid])EFIAHLVQGRG	< 600	≤ 1000
HAEGTFTSDVSSYLEK([AEEA-AEEA-γGlu-C18 diacid])QAAREFIAHLVQGRG	< 600	≤ 1000
HAEGTFTSDVSSYLEEQK([AEEA-AEEA-γGlu-C18 diacid])AREFIAHLVQGRG	< 600	≤ 1000
HAEGTK([AEEA-AEEA-C18 diacid])TSDVSSYLEEQAAREFIAHLVQGRG	< 600	≤ 1000
HSEGTFTSDVSSYLEGQAAK([AEEA-AEEA-γGlu-C18 diacid])EFIAHLVQGRG	< 600	≤ 1000
HAEGTK([AEEA-AEEA-γGlu-C18 diacid])TSDVSSYLEEQAAREFIAHLVQGRG	< 600	≤ 1000

From patent US8815802 (Novo Nordisk, dated 2014)
